# Results taken from US20200270325A1 (Merck Sharp & Dohme, published 2020).
# Numbered stars: 1 amine (or outer) side, 2 acyl side, 3 side chain; on linkers, the order of the positions; unused ones are H or OH. Square brackets hold non-standard residues; d marks the D form. Side chains are listed from the residue outwards. Ends that are not written are not given here. * marks the point of attachment. Phe(4-CH2NH2) = NCc1ccc(C[C@H](N)C(=O)O)cc1; C18 diacid = O=C(O)CCCCCCCCCCCCCCCCC(=O)*; αMeW = C[C@](N)(Cc1c[nH]c2ccccc12)C(=O)O; C16 diacid = O=C(O)CCCCCCCCCCCCCCC(=O)*; γGlu = O=C(O)[C@H](CCC(=O)[*:2])N[*:1]; Met(O2) = CS(=O)(=O)CC[C@H](N)C(=O)O; αMeF = C[C@](N)(Cc1ccccc1)C(=O)O; αMeD = C[C@](N)(CC(=O)O)C(=O)O; AEEA = NCCOCCOCC(=O)O; Aib = CC(C)(N)C(=O)O
# B1: TP628 (peptide)
# peptide: H[Aib]QGTFTSDYSKYLDARAAK([AEEA-γGlu-C18 diacid])DFVQWL[Met(O2)][αMeD]T-NH2
# modifications: N-terminus assumed
# SMILES: CC(C)C[C@H](NC(=O)[C@H](Cc1ccc(O)cc1)NC(=O)[C@H](CCCCN)NC(=O)[C@H](CO)NC(=O)[C@H](Cc1ccc(O)cc1)NC(=O)[C@H](CC(=O)O)NC(=O)[C@H](CO)NC(=O)[C@@H](NC(=O)[C@H](Cc1ccccc1)NC(=O)[C@@H](NC(=O)CNC(=O)[C@H](CCC(N)=O)NC(=O)C(C)(C)NC(=O)[C@@H](N)Cc1c[nH]cn1)[C@@H](C)O)[C@@H](C)O)C(=O)N[C@@H](CC(=O)O)C(=O)N[C@@H](C)C(=O)N[C@@H](CCCNC(=N)N)C(=O)N[C@@H](C)C(=O)N[C@@H](C)C(=O)N[C@@H](CCCCNC(=O)COCCOCCNC(=O)CC[C@H](NC(=O)CCCCCCCCCCCCCCCCC(=O)O)C(=O)O)C(=O)N[C@@H](CC(=O)O)C(=O)N[C@@H](Cc1ccccc1)C(=O)N[C@H](C(=O)N[C@@H](CCC(N)=O)C(=O)N[C@@H](Cc1c[nH]c2ccccc12)C(=O)N[C@@H](CC(C)C)C(=O)N[C@@H](CCS(C)(=O)=O)C(=O)N[C@@](C)(CC(=O)O)C(=O)N[C@H](C(N)=O)[C@@H](C)O)C(C)C
# B2: TP609 (peptide)
# peptide: H[Aib]QGTFTSDYSKYLDARAAQ[Phe(4-CH2NH2)]([AEEA-AEEA-γGlu-C18 diacid])FVQWLL[αMeD]T-NH2
# modifications: N-terminus assumed
# SMILES: CC(C)C[C@H](NC(=O)[C@H](Cc1ccc(O)cc1)NC(=O)[C@H](CCCCN)NC(=O)[C@H](CO)NC(=O)[C@H](Cc1ccc(O)cc1)NC(=O)[C@H](CC(=O)O)NC(=O)[C@H](CO)NC(=O)[C@@H](NC(=O)[C@H](Cc1ccccc1)NC(=O)[C@@H](NC(=O)CNC(=O)[C@H](CCC(N)=O)NC(=O)C(C)(C)NC(=O)[C@@H](N)Cc1c[nH]cn1)[C@@H](C)O)[C@@H](C)O)C(=O)N[C@@H](CC(=O)O)C(=O)N[C@@H](C)C(=O)N[C@@H](CCCNC(=N)N)C(=O)N[C@@H](C)C(=O)N[C@@H](C)C(=O)N[C@@H](CCC(N)=O)C(=O)N[C@@H](Cc1ccc(CNC(=O)COCCOCCNC(=O)COCCOCCNC(=O)CC[C@H](NC(=O)CCCCCCCCCCCCCCCCC(=O)O)C(=O)O)cc1)C(=O)N[C@@H](Cc1ccccc1)C(=O)N[C@H](C(=O)N[C@@H](CCC(N)=O)C(=O)N[C@@H](Cc1c[nH]c2ccccc12)C(=O)N[C@@H](CC(C)C)C(=O)N[C@@H](CC(C)C)C(=O)N[C@@](C)(CC(=O)O)C(=O)N[C@H](C(N)=O)[C@@H](C)O)C(C)C
# B3: TP594 (peptide)
# peptide: HXQGTFTSDYSKYLDARAAXXFVQWLXDT
# modifications: Aib (U) at 2; K(PEG2PEG2γEC20-OH) at 20; αMD at 21; L-methionine sulphone (2) at 27; C-terminal amide
# B4: TP640 (peptide)
# peptide: H[Aib]QGTFTSDYSKLLDARAAK([AEEA-AEEA-γGlu-C18 diacid])DFVQWL[Met(O2)][αMeD]T-NH2
# modifications: N-terminus assumed
# SMILES: CC(C)C[C@H](NC(=O)[C@H](CC(C)C)NC(=O)[C@H](CCCCN)NC(=O)[C@H](CO)NC(=O)[C@H](Cc1ccc(O)cc1)NC(=O)[C@H](CC(=O)O)NC(=O)[C@H](CO)NC(=O)[C@@H](NC(=O)[C@H](Cc1ccccc1)NC(=O)[C@@H](NC(=O)CNC(=O)[C@H](CCC(N)=O)NC(=O)C(C)(C)NC(=O)[C@@H](N)Cc1c[nH]cn1)[C@@H](C)O)[C@@H](C)O)C(=O)N[C@@H](CC(=O)O)C(=O)N[C@@H](C)C(=O)N[C@@H](CCCNC(=N)N)C(=O)N[C@@H](C)C(=O)N[C@@H](C)C(=O)N[C@@H](CCCCNC(=O)COCCOCCNC(=O)COCCOCCNC(=O)CC[C@H](NC(=O)CCCCCCCCCCCCCCCCC(=O)O)C(=O)O)C(=O)N[C@@H](CC(=O)O)C(=O)N[C@@H](Cc1ccccc1)C(=O)N[C@H](C(=O)N[C@@H](CCC(N)=O)C(=O)N[C@@H](Cc1c[nH]c2ccccc12)C(=O)N[C@@H](CC(C)C)C(=O)N[C@@H](CCS(C)(=O)=O)C(=O)N[C@@](C)(CC(=O)O)C(=O)N[C@H](C(N)=O)[C@@H](C)O)C(C)C
# B5: TP608 (peptide)
# peptide: HXQGTFTSDYSKYLDARAAQXFVQWLXXT
# modifications: Aib (U) at 2; K(PEG5-γEC18-OH) at 21; L-methionine sulphone (2) at 27; αMD (printed aMD) at 28; C-terminal amide
# B6: TP443 (peptide)
# peptide: H[Aib]QGTFTSDYSKYLDARAAQ[Phe(4-CH2NH2)]([AEEA-AEEA-γGlu-C18 diacid])FVQWLLDT-NH2
# modifications: N-terminus assumed
# SMILES: CC(C)C[C@H](NC(=O)[C@H](Cc1ccc(O)cc1)NC(=O)[C@H](CCCCN)NC(=O)[C@H](CO)NC(=O)[C@H](Cc1ccc(O)cc1)NC(=O)[C@H](CC(=O)O)NC(=O)[C@H](CO)NC(=O)[C@@H](NC(=O)[C@H](Cc1ccccc1)NC(=O)[C@@H](NC(=O)CNC(=O)[C@H](CCC(N)=O)NC(=O)C(C)(C)NC(=O)[C@@H](N)Cc1c[nH]cn1)[C@@H](C)O)[C@@H](C)O)C(=O)N[C@@H](CC(=O)O)C(=O)N[C@@H](C)C(=O)N[C@@H](CCCNC(=N)N)C(=O)N[C@@H](C)C(=O)N[C@@H](C)C(=O)N[C@@H](CCC(N)=O)C(=O)N[C@@H](Cc1ccc(CNC(=O)COCCOCCNC(=O)COCCOCCNC(=O)CC[C@H](NC(=O)CCCCCCCCCCCCCCCCC(=O)O)C(=O)O)cc1)C(=O)N[C@@H](Cc1ccccc1)C(=O)N[C@H](C(=O)N[C@@H](CCC(N)=O)C(=O)N[C@@H](Cc1c[nH]c2ccccc12)C(=O)N[C@@H](CC(C)C)C(=O)N[C@@H](CC(C)C)C(=O)N[C@@H](CC(=O)O)C(=O)N[C@H](C(N)=O)[C@@H](C)O)C(C)C
# B7: TP630 (peptide)
# peptide: H[Aib]QGTFTSDYSKYLDARAAK([AEEA-AEEA-γGlu-C16 diacid])DFVQ[αMeW]L[Met(O2)]DT-NH2
# modifications: N-terminus assumed
# SMILES: CC(C)C[C@H](NC(=O)[C@H](Cc1ccc(O)cc1)NC(=O)[C@H](CCCCN)NC(=O)[C@H](CO)NC(=O)[C@H](Cc1ccc(O)cc1)NC(=O)[C@H](CC(=O)O)NC(=O)[C@H](CO)NC(=O)[C@@H](NC(=O)[C@H](Cc1ccccc1)NC(=O)[C@@H](NC(=O)CNC(=O)[C@H](CCC(N)=O)NC(=O)C(C)(C)NC(=O)[C@@H](N)Cc1c[nH]cn1)[C@@H](C)O)[C@@H](C)O)C(=O)N[C@@H](CC(=O)O)C(=O)N[C@@H](C)C(=O)N[C@@H](CCCNC(=N)N)C(=O)N[C@@H](C)C(=O)N[C@@H](C)C(=O)N[C@@H](CCCCNC(=O)COCCOCCNC(=O)COCCOCCNC(=O)CC[C@H](NC(=O)CCCCCCCCCCCCCCC(=O)O)C(=O)O)C(=O)N[C@@H](CC(=O)O)C(=O)N[C@@H](Cc1ccccc1)C(=O)N[C@H](C(=O)N[C@@H](CCC(N)=O)C(=O)N[C@@](C)(Cc1c[nH]c2ccccc12)C(=O)N[C@@H](CC(C)C)C(=O)N[C@@H](CCS(C)(=O)=O)C(=O)N[C@@H](CC(=O)O)C(=O)N[C@H](C(N)=O)[C@@H](C)O)C(C)C
# B8: TP577 (peptide)
# peptide: HXQGTFTSDYSKYLDSRAAXDFVQWLXDT
# modifications: Aib (U) at 2; K(PEG2PEG2γEC20-OH) at 20; L-methionine sulphone (2) at 27; C-terminal amide
# B9: TP587 (peptide)
# peptide: H[Aib]QGTFTSDYSKYLDERAA[Phe(4-CH2NH2)]([AEEA-AEEA-γGlu-C18 diacid])DFVQWLLKT-NH2
# modifications: N-terminus assumed
# SMILES: CC(C)C[C@H](NC(=O)[C@H](Cc1ccc(O)cc1)NC(=O)[C@H](CCCCN)NC(=O)[C@H](CO)NC(=O)[C@H](Cc1ccc(O)cc1)NC(=O)[C@H](CC(=O)O)NC(=O)[C@H](CO)NC(=O)[C@@H](NC(=O)[C@H](Cc1ccccc1)NC(=O)[C@@H](NC(=O)CNC(=O)[C@H](CCC(N)=O)NC(=O)C(C)(C)NC(=O)[C@@H](N)Cc1c[nH]cn1)[C@@H](C)O)[C@@H](C)O)C(=O)N[C@@H](CC(=O)O)C(=O)N[C@@H](CCC(=O)O)C(=O)N[C@@H](CCCNC(=N)N)C(=O)N[C@@H](C)C(=O)N[C@@H](C)C(=O)N[C@@H](Cc1ccc(CNC(=O)COCCOCCNC(=O)COCCOCCNC(=O)CC[C@H](NC(=O)CCCCCCCCCCCCCCCCC(=O)O)C(=O)O)cc1)C(=O)N[C@@H](CC(=O)O)C(=O)N[C@@H](Cc1ccccc1)C(=O)N[C@H](C(=O)N[C@@H](CCC(N)=O)C(=O)N[C@@H](Cc1c[nH]c2ccccc12)C(=O)N[C@@H](CC(C)C)C(=O)N[C@@H](CC(C)C)C(=O)N[C@@H](CCCCN)C(=O)N[C@H](C(N)=O)[C@@H](C)O)C(C)C
# Tests used:
# [1] = target: human GLP-1 receptor (GLP1R) (human, UniProt P43220 24-463); experiment: cell-based or functional assay
# [2] = target: human Glucagon receptor (GCGR) (human, UniProt P47871 26-477); experiment: cell-based or functional assay
# human Glucagon receptor (GCGR), sequence (P47871 26-477): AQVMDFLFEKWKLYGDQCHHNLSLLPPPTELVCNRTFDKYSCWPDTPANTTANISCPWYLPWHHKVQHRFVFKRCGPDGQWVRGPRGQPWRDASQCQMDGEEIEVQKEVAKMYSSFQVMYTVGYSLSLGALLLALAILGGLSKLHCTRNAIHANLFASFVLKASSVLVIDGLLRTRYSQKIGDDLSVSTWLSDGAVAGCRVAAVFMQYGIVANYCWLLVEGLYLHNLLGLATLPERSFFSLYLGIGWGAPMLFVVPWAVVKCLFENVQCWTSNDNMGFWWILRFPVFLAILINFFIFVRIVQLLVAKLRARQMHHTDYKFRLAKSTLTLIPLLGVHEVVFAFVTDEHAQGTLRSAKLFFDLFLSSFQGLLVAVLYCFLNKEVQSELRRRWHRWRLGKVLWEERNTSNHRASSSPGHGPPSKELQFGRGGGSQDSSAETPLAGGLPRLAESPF
Binder,GLP1R EC50 human [1],GCGR EC50 human [2]
H[Aib]QGTFTSDYSKYLD[Aib]RAAQDFVK([AEEA-AEEA-γGlu-C20‑OH])WL[Met(O2)]DT-NH2 [TP576],1.88 nM,1.45 nM
B1,1.39 nM,0.86 nM
"HXQGTFTSDXSKYLDARAAQDFVQWLLDT (D-Ser (s) at 2; Nle(1,2,3-triazole-4-C4-Lys-C16) at 10; C-terminal amide) [TP831]",0.08 nM,0.14 nM
B2,0.42 nM,0.36 nM
H[Aib]QGTFTSDYSKYLDERAA[Phe(4-CH2NH2)]([AEEA-AEEA-γGlu-C20‑OH])DFVQWLLKT-NH2 [TP586],1.23 nM,4.95 nM
B3,2.6 nM,4.95 nM
H[dS]QGTFTSDYSKYLE[Aib]RAAK([AEEA-AEEA-γGlu-C20‑OH])DFVQWLL[Aib]TK-{γGlu-NH2} [TP579],14.7 nM,> 19.9 nM
B4,0.84 nM,0.69 nM
B5,0.23 nM,0.21 nM
H[Aib]QGTFTSDYSKYLDARAAK([AEEA-AEEA-γGlu-C20‑OH])D[αMeF]VQWL[Met(O2)]DT-NH2 [TP590],1.64 nM,5.03 nM
B6,0.1 nM,0.18 nM
"HXQGTFTSDXSKYLDARAAQDFVQWLLDT (D-Ser (s) at 2; Nle(1,2,3-triazole-4-C15) at 10; C-terminal amide) [TP829]",0.68 nM,1.06 nM
"HXQGTFTSDXSKYLDARAAQDFVQWLLDT (D-Ser (s) at 2; Nle(1,2,3-triazole-4-γE-C16) at 10; C-terminal amide) [TP830]",0.22 nM,0.14 nM
B7,0.29 nM,0.89 nM
B8,1.67 nM,4.54 nM
B9,0.41 nM,2.49 nM
